Assay: soluble on expression in E. coli; label from the status in PepcDB or PDB records

Row | Sequence | soluble on expression in E. coli
1 | MAHHHHHHMLGSGKSSGVVNEASNLKANQNLTSAIEEMNTKEYIRNRDLNDVVPTHRRQVEAMMNKGNNNNGKVGLPAYDPAAEKEKERKERGQTHIEDRNDSDDDGELEELRKRRMAQMQQHHAKVAEWRQKQHGQYREISQDEFFSIVVREKGGSDDVCVHFYHKDFETCRVMDSRLLELSRMMLSVKFVKIDAEKSPFLVERLHIKTLPCCVLFHNDVAVDRIYGFEGCIGEDGLLDKELLGERILRAVNCKQEECE | soluble
2 | MAHHHHHHMLLRASASSTLRTRGASCCSGACTGLYGSGSLTVQQRFIEYWGSGVTGRTQPYAQGDMIPRVDNMRYPVNKATSAAASLTGNQSSIAYDTSSIFQVEGFSPLEKEHYQSLRGSTRHKVESLPPHIGKDVMVLLKNMSEEGLLEEHWWARVVKDFPSMKTPCTAEFKSAWEKFYTEASGVADDNEAVKAISRPFLQTQMQKNYIAYAMVWRVAERLCEAFDAVPHVTVYERRGGRLVVERVTKLMLDTIADEPWAHQETTSPLHVDISNFRAWHEAGYW | not soluble
3 | MAHHHHHHMLNCFFGAELKPDGVPISFTIPKGTTLVITQCAVTSVVPPQQSTDAGASSSPAVVAKAYNPVTLCVQGHGLPTRFAVCSLSPAQHITYCPLQLLFSKPVSFVLVPQTGSTAAAAAASSSPSPAPHAGKKTGRNQKHSKTTAGAHGAGAEATAVYPTVHLTGYYERAADEDEEDGSMAMDVMESSDDGENDDLSDDE | soluble
4 | MAHHHHHHMLRHLFRCTAAWAPKRSATREQRLKERVAARMELEAQVKSRVACYPHRSLTRPALRLERHQVNTPLFHSQLLNLNKMATDLQCISFSAPKGHWDAAIVLIKGHPNEANFEVWVNPTVPGYDDRHSIAPMYGMWENCISCGACTAWVIRPQSITCSGLDEYGNEKTEVLDGMRARCLMHELDHLSGRTILDQAQGPEFIVSGIAMGQRDLWPPNFPSAEAYMTSPHQFFDYVKNGPIIPPG | not soluble
5 | MAHHHHHHMLRRLGAGTNGQVRRSASSVSYGYLNLTVSDKIMPYVEGLKKKVIYVSSSKDCKAYVQEIQKGVQAGKINCIGLDVEGYKIGRNGTVSIIQVCTQDVYLFDLYKCDNSYLFVKCLKELLEDRRVIKITHDCREDCSILFNQYSICLNRTFDTQVAFNLLLKETKKDLYQISYDDLLYKCLLLNNKHKIYFHKMISLDQKIYLKRPIAKELIQYAIQDVIYLKPLMWSLVDRLLRVCKDGEAGREPFGEDGEARSNPFGEDGEARSNPFGEENPRSIKNGDDVMSEGAHSNLSEHKTNIIKRVTRLSERYINYQFLNTHVKNEKELQKGMTLDGMVVSCNNLNLYVKLNLSRRGVITNCMRNDFEIGDVVKCVILGFCNNDYIKLGLCDPSLCAVKREEGR | not soluble
6 | MAHHHHHHMLRWTSRYLCASAAAAAGPEVHRDVEEFAVVIVGGGPSGLSAAIRLKQLAGDQRDSFRVGLVEKGSEIGAHTLSGACVEPHGLDELLPGWREQEGSVLSSMTPVTSDAFHVLIGPSRSVKVPWLPSTLHNRGNYITSLGGICKWLGEQAEALGVEIYPGFAAADVVVDEATGAVTGVQLNDRGVDKSGRRTAQYEPGMIFRAKQTIFAEGCRGSCTKQLEKRFGLRTADNPQTFGLGIKEVWEVPKERHHPGTVMHTVGWPTTDKGHDNTYGGAFLYHYGDGLISCGYVVGLDYSNPYCRPYMEMQKWKTHDLIRGQLEGGRPILYGARTLVEGGFSALPKLHFPGGVLAGDCAGFLNLPKIKGTHTAMKSGMLAAEAVYEDAFKGGKEEAASGVECKSYDDCFRSSWLYKELYTVRNVRQSFYKSFKWGMLYTGITSLLLHGREPWTLKHTTPDNLSLKPAKECVEIKYPKPDGTLTFDLLTNHSRSGTAHNADQPCHLRLKDSKVAEEVNLKAYAGPEARFCPAGVYEFVNDKLVINAQNCLHCKACDIKDPTQNINWTVPEGGGGPNYQAQM | not soluble
7 | MAHHHHHHMLWRKQCACRTPEHPTKGYRSVNDSLQLMEIRRTSTPLNYKLLRAYQFLPYEVPFPPHTFASQQWREGENVEAHYALYQTCLCMYLVSSDMSLTVTNMLPALGIHEHDVHKVSRTLCAARCST | not soluble
8 | MAHHHHHHMMEHLNIEKEAVTYASLIAALHNPQYVLPGHTAKELEAHLPGGVSSQQHTNVGEGGGTVTEGQASGPTSNSVDLSGTKTSYEAYRQERIEAGMAWFAACHSAHRTADVFNELLYLLRAKSHWCQFNTVLVQLRGNAVVTETEWPERLSEAGEGVPPSASAAGGASPGSVTILAPRWSTWPNGKTYELLIQRARYVHQWEVMWALYEEMIATGVHGTARVYEVLLLEARSHPPQAVLAAERSGNSDGASSFLLRLYEELRRNGSDVHSFTGTVNVVNAWTRARSRSNRWQS | not soluble
9 | MAHHHHHHMMKEETLNSDNSSAEVSVESPSFSFNCAHFIAYNGFRETLHGHNYNVSLKVRGYVRDDGYVIDFSILKEKVKKVCNKLDHHFILPIYSDVLKFENVKNNIKIICEDNSEYSFPERDCIKLPIKHSSTEEIGQYILNQLIEEMDVSLLKSRHIHYIEISVSESPTQKAIVHKYI | soluble
10 | MAHHHHHHMMRLSRLGVTAAAAAPSSFPLLQQLRGVRYANIQETLKPIPGQTAGQISILNEICCNPDAEEERRKPVFRAEVMPDAAAAAEEDNYLHTMHKWGYDSLTLFKKTNEDPGPWWNANASTLASNWSQVGDYANAGMWSGVWRYTYGIGEYNLRPYELRGRAWGRKDPKTGAVMIRYGKRSTSKPVQRLCFPHTKEHEQHHRIKNPANKDVKEISALHGKRILRELQYHLGQGLRFYLVDGVFGSDPGTATPYRIITDTPTHAYFASMAAIRTFNYVARQEVTLVKRLSQSPIDEWGWRRPGVLIYHAPSYDFESPRIVEEFGGPRPKDMGLSHNRFIATEPYSIPMKCAMGGEPSCDALLDSTAMLCGRWGFYADEKGYLTVPGESIMSKDGRSLTLVITGDEADADALRTSPQLYGSRHHRIANGVVSRAWDVVSMPACATGAKPLPTDIVEQDLQRVQRSLPTRMGLPHTLSHRHHGRRHVSEYGFKWPHNYTEDVSTKAYAGGHLFKAPKTDKLAGHQPRPSRFLMKDVDVVVIGEGVDAAAAVVSTLKDRGMLYAEEAPLKEAMATALKAAKSVKVVPRASSKVVLGKLTHV | not soluble
11 | MAHHHHHHMMSAAARKRRCQQARQREPAAPQQKGEASRHDDTAEPERKPLTGAVSPAINSAAEAPSATPPVLSSHFSLKPGLPTSPPLMHKRTATRCGSVDEDALFFQTYENVADMRFASLDEIAQSVVDLRQRVQQRMQHQRLLTDIEALHERHGSALLRSMPHVLNVLEAAAAVDDGAEGPSGRSGGGQFTMSPEQVYARMVRQIDEQRSGHEQHQRDPDNAEKVVGILHLRQLPVGRPIPPRIRQLRESAALAQVAASEEARRRSRLLPRESKDRSSSTTKRGVSVSAAVSIQFADPAAPLMASSTGGGRSSSLTTVMELRRWRPYLERRNRLSAALTRIFDATTLRAVYSYYRTCALLQRDAAVVRRLVPDRQQWSALPSIEELAVLDRRLEVMFEGRPSWDGRQGA | not soluble
12 | MAHHHHHHMNAVKEADVVFLEAYTSFLINSNAEKLAGIYGKPVILADREMVESGAVLDDAKVKKVVLLVVGDVFGATTHSDLIVRCNRQGIESKIVHNASIINAVGCCGLQLYRFGQVISLCFWTETWRPDSWYERLQSNRAAGIHTLVLLDIKVKEISDENLARGRKIYEPPRYMTIRQAIEQILEVEGYKQGGAVAADGSTFAVGLARVGSESQQVVAGTMKDLLSVDFGAPLHSLVIAGDVHDCEQEHVDLFRMAGQ | not soluble
13 | MAHHHHHHMNDSISSPIKATCRDMALKSSLHSFTFSLKDFDIAGFLGDGAHGSVFLACERRTNFICVLKCISKSHLVKSTQEALLRKEIELQAHLKHPHIACMYTWFHTSSHVFFVMEYCSNGDLFTYLNENGPFCEKKVAEMLFEIIWAIRTCHDKRIAHLDLKPENVLVNHEEKCKLADFGLSAHIGSKHKKKGISHYRGTHDYWSPEQCARHQKKKQNFGEFDQKTDIWTLGILAFELKFGRPPFGSTNEERENVIMNRIQDYHWSQLFCEKVKQDLIDKLSPEFKDFLNLCLDKNPKKRPTAESLIQHPFIFIHNKNRSCIKSYATQPRGKQGPKLSHKGFNEQDGSFLTPIWFHNK | soluble

— the DeepSol protein solubility set
